Results: patent US11759508B2, “Antigenic peptides for treatment of B-cell malignancy” (ENTEROME S.A., priority 2019, dated 2023)

Assays:
HLA-A*0201 = target: T1, HLA-A*0201 (Homo sapiens, UniProt P04439, D140Y/D185E/D98H/E176V/E277Q/G131W/G231S/I119V/I121R/I166T/I218V/L300P/L318F/N151K/N90K/P208A/P217A/Q86G/Q94H/R138H/R169H/T345S); assay: Affinity of the peptide to T2 cell line (HLA-A*0201 expression, FACS, relative to HIV pol 589-597); type: binding; conditions: for mean relative fluorescence intensity of T2 cells: normalized to HIV peptide = 100
T1 construct: human tumoral cell T2 which expresses the HLA-A*0201 molecule; endogenous in cells; host or cells: T2 cells (human, TAP1/2 negative)
Excerpt: The experimental protocol is similar to the one that was validated for peptides presented by the HLA-A*0201 (Tourdot et al., A general strategy to enhance immunogenicity of low-affinity HLA-A2.1-associated peptides: implication in the identification of cryptic tumor epitopes. Eur J Immunol. 2000 December; 30(12):3411-21). Affinity measurement of the peptides is achieved with the human tumoral cell T2 which expresses the HLA-A*0201 molecule, but which is TAP ½ negative and incapable of presenting endogenous peptides.
(§1) T2 cells (5.104 cells per well) are incubated with decreasing concentrations of peptides from 100 μM to 0.1 μM (4 points: 100 μM, 10 μM, 1 μM, 0.1 μM) in serum-free medium (TexMacs) supplemented with […] of β2 Microglobulin at 37° C. for 16 hours. Cells are then washed two times and marked with the anti-HLA-A2 antibody coupled to PE (clone BB7.2, BD Pharmagen).
The analysis is achieved by FACS (Macsquant analyzer 10-Miltenyi).
For each peptide concentration, the geometric mean of the labelling associated with the peptide of interest is subtracted from background noise and reported as a percentage of the geometric mean of the […] labelling obtained for the reference peptide HIV pol 589-597 at a concentration of 100 μM. […] A2. Solubilisation of Peptides
as §1, with “32” for “β2”
For each peptide concentration, the geometric mean of the labelling associated with the peptide of interest is subtracted from background noise and reported as a percentage of the geometric mean of the […] labelling obtained for the reference peptide HIV pol 589-597 at a concentration of 100 μM.

[1] = tested on: CD8 T cells from PBMCs of HLA-A*02 healthy donors; assay: Detection of antigenic peptide-specific CD8 T cells with pMHC multimers after in vitro amplification; type: cell-based, human; conditions: one HLA-A2 healthy donor, after cell amplification (FIG. 17)
Excerpt: In vitro amplification method and specific pMHC multimers have been used for identification of CD22-B1, CD37-B1, TNFRSF13C-B1 and MS4A1-B4 specific T cells. pMHC multimers were generated for all the bacteria peptides and their respective human counterpart. PBMCs from several HLA-A*02 healthy donors (up to 19 donors) were collected, enriched after CD137 and CD8 selection and subjected to multiple rounds of in vitro amplification with EO2463 peptides loaded T2 cells to increase the number of specific T cell clones. Detection of OMP peptide specific CD8 T cells using cytometry analysis with the fluorescent multimer was performed on enriched CD8 T cell populations

YIFEHPELL (YIFEHPETA) [CD22-B1] was tested, and the “Concentration of peptide that induces 20% of HLA-A2 expression” value (HLA-A*0201; T2 cells, peptide 100-0.1 μM, 16 h, 37° C., anti-HLA-A2 FACS) was 0.16 µM, the “In vitro binding affinity* (relative affinity)” value (HLA-A*0201; normalized against HIV-pol concentration of peptide inducing 20% of HLA-A2 expression in the same experiment) was 0.4 and the “mean relative fluorescence intensity of T2 cells” value (HLA-A*0201; peptide 0.1 (μM)) was 0. The “mean relative fluorescence intensity of T2 cells” value (HLA-A*0201; peptide 1 (μM)) was 81, the “mean relative fluorescence intensity of T2 cells” value (HLA-A*0201; peptide 10 (μM)) was 123 and the “mean relative fluorescence intensity of T2 cells” value (HLA-A*0201; peptide 100 (μM)) was 164. The “peptide-specific CD8 T cells detected with fluorescent multimer” value [1] was 4.6%.
